The text below walks through data of the RNAGym collection of RNA variant scans (doi:10.1073/pnas.2313332121).

To fix the notation:
B1: TPR t1 (parent)
chain: GACCAAUCUGCCCUCAGAGCUCGAGAACAUCUUCGGAUGCAGAGGAGGCAGGCUUCGGUGGCGCGAUAGCGCCAACGUCCUCAACCUCCAAUGCAUCCCACCACAUGAUGAUGCCUGAAGAGCCUUGGUUUUUUG

The data set covers variants of B1. The data set can be described thus: polymerase ribozyme fitness, log enrichment relative to wild type (log ratio); higher = more active; in vitro selection for triplet polymerase activity. The gist of the method:
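Fitness compares each genotype's enrichment to that of the wild type on a logarithmic scale, averaging replicates with inverse-variance weights. The logarithm is base 2. Enrichment came from Illumina sequencing of input and output libraries after one triplicate round of in vitro selection, which included frozen incubation at −7 °C, of PCR-built, transcribed mutant libraries of each subunit of a heterodimeric triplet polymerase ribozyme. Only genotypes with ≥10 input reads and ≥1 read per output were kept.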
As for G58C G71U A74G C85A A90C, the “polymerase ribozyme fitness (log ratio)” value was -3.43.
As to U7C C20A G39C G61A, the “polymerase ribozyme fitness (log ratio)” value is -3.85.
In the case of A27G G48C G71C G127C it was -5.17.
Consider U9G A46U U55G A103C, for which the “polymerase ribozyme fitness (log ratio)” value was -4.6.
As for C8U U32A G60C C97A C99A G122U, the figure is -5.09; as for U109A G135U, -4.82; as for A41U C80U, -1.77.
In the case of C53A A74U U125A it was -1.05; in that of G52A G117U, -0.533; in that of A46U C72G C114G, -3.52.
In the case of C101A G110A it was -2.55; in that of C12U C13U A18U C20G, -4.78.
In the case of G61U C72U, the “polymerase ribozyme fitness (log ratio)” value is -0.409.
As for U21C C56A C70U C82A, the figure is -2.18.
In the case of C20U G52A G60A it was -2.6.
As for C12U G39C G45U A100U U131G, the figure is -3; as for G39A C56A U130A U131C, -1.5.
Consider A41G U55G A75G U87A A108G, for which the “polymerase ribozyme fitness (log ratio)” value was -4.14.
On to C3G, for which the “polymerase ribozyme fitness (log ratio)” value is -1.58.
As for C104A G128A, the “polymerase ribozyme fitness (log ratio)” value was -3.67.
For C22A A29G A50G U116G U129C, the “polymerase ribozyme fitness (log ratio)” value is -5.9.
In the case of C53G U92A it was -3.48; in that of G52A G60C C70U U109A, -5.53.
In the case of A5U A68G C82G it was -3.79; in that of G77A C82A U109A, -4.87; in that of C56G U81A U125A, -1.81.
As for C12U G69C, the figure is -0.628; as for C28G C82U, -2.1.
For C40U G122A, the “polymerase ribozyme fitness (log ratio)” value is -1.22.
In the case of C4U C56G C70A it was -3; in that of U9A C22G G51A C56G C123A, -3.28.
As to C56G G71A, the “polymerase ribozyme fitness (log ratio)” value is -4.31.
As for G10A G51U C56G, the figure is -5.12; as for G57A C72A G120A, -0.828; as for G52C C72U C86U C89U A105U, -4.77.
As for C49G U78G U112A, the figure is -0.0739.
As for U14G C72U, the figure is -1.52; as for U9A C15A A37G C56U G65A C79G C86G C115A, -7.1; as for G51U G122A, -3.78.
A5C C13U G44C G48U C115U: the “polymerase ribozyme fitness (log ratio)” value is -3.4.
In the case of U116C U132C it was -1.33.
In the case of U112A G120C it was -0.182; in that of G51U G135U, -4.28.
With A18G A24G C34U G61A A111U G128U G135U, the “polymerase ribozyme fitness (log ratio)” value was -6.04.
With C8U C56U C82A C97A G117C, the “polymerase ribozyme fitness (log ratio)” value was -7.35.
As for A103U C123U, the figure is -3.47; as for A18G C53A A100C A103G C114A, -5.14.
As for U54G U125A U126A, the figure is -2.
As for C88A G120U, the figure is -0.146; as for C34A C97G, -4.18.
As to A41U A50G G77A, the “polymerase ribozyme fitness (log ratio)” value was -0.647.
C28G A95U U125A: the “polymerase ribozyme fitness (log ratio)” value is -3.63.
In the case of C89U C97U it was -0.579; in that of C11U C12U A111C G122A, -0.0374; in that of G44C G77U C86A, -4.13.
As for G63U A121C, the figure is 0.0306; as for C12U G60A, -0.607; as for U7A C73A C88G A111U U129G, -6.86.
C12U U14C C72G C82G U112A: the “polymerase ribozyme fitness (log ratio)” value stood at 0.602.
For the variant U32A C56A, the “polymerase ribozyme fitness (log ratio)” value was -3.44.
As for G47C U125G, the figure is -3.03; as for U59A G128A, -1.96.
In the case of C12U U30G G63U G113C G117C it was -7.89; in that of A41G C104U, 0.737; in that of G10A U54A A119G, 1.
As for G71U C73G A90U C114U, the figure is -7.06.
For the variant G61C C97A C124G, the “polymerase ribozyme fitness (log ratio)” value is -5.48.
In the case of A100C C102A it was -2.98; in that of A2G C4G C8G G47U U54C, -3.05; in that of C70G C99A, -7.95.
In the case of C88A A105C it was -2.46; in that of A100C U112G, -0.251; in that of C8A C22G G61U A121U, -1.38.
For G44A G77C U78A G93A, the “polymerase ribozyme fitness (log ratio)” value was -1.9.
As for C13U C53A U92G C101U, the figure is -1.94; as for G42U A46C C53A U92A A95C C104G U112A, -7.25.
With C12U G42C C72U, the “polymerase ribozyme fitness (log ratio)” value was -1.28.
Consider C13U C80U A84C C124U, for which the “polymerase ribozyme fitness (log ratio)” value was determined as 1.02.
In the case of C22A G57C C86U it was -4.83; in that of A5G C79A C115G U125G U131A, -1.22; in that of C12A G71U G117C U126C, -6.35.
As for C12G A43U A75U C124G, the figure is 0.348; as for C13A U14G G42A A84U, -3.34; as for C22G C34A G52C, -4.14.
As for A46U G57A C79G, the figure is -2.59; as for U9A C73U, 0.98; as for A37U C101A G120A, -0.798.
As to G39U G45U C72A, the “polymerase ribozyme fitness (log ratio)” value was -2.22.
As for G47C G61U, the figure is -2.07; as for U78A G93A C97A A121C, -5.11.
In the case of C15U A46C C70G it was -4.3; in that of C13U C64U U92C U96C, -1.14; in that of C8A G120A, 1.88.
Take C49G C70A: the “polymerase ribozyme fitness (log ratio)” value was -2.2.
In the case of C11G C28A C56U C124G it was -3.7; in that of C11U C79G U92A U106C U112A, -5.83; in that of C15G G25C A41U U109A, -5.74.
In the case of C3U G47U A105G it was -4.56.
In the case of A29U U92G U109A C115U U130A, the “polymerase ribozyme fitness (log ratio)” value was -5.3.
As to C20U A26G G71U U109A, the “polymerase ribozyme fitness (log ratio)” value was -5.57.
As for C15U A95G C114G, the figure is -4.48; as for G60U G65U A121C, -6.44; as for A24G U96G C102A, -5.25.
As for C3U U9C C49A C70U C76A C115A, the figure is -0.878.
In the case of C40G U55G it was -0.761.
On to C3U C11U C13G U116C, for which the “polymerase ribozyme fitness (log ratio)” value is -4.66.
Take U21C C56U A84C C98A: the “polymerase ribozyme fitness (log ratio)” value was -4.77.
As for C53G C56G, the figure is -0.593.
C72G C88U U92A: the “polymerase ribozyme fitness (log ratio)” value was -3.52.
As for C13U C15U U59A A84C A90C U106G U130A, the figure is -4.77.
In the case of C34G C124U it was -4.28; in that of C49U C124G, 0.761; in that of C88A G110A, -1.49.
As for G61A C88U U131G, the figure is -0.555; as for C123U U126A, 0.0607; as for C4U C31U G61U C98G C101A C114U, -6.59.
For A37U G63C G69U C97U C99U G110U, the “polymerase ribozyme fitness (log ratio)” value was -5.81.
As for U38G G44A, the figure is -2.72.
In the case of C15G U59C C86U U116G it was -4.2; in that of G110A G113U, -5.23; in that of U14G G45C C94A C123U, -3.17.
As for U81C C114U, the figure is -1.96; as for C3A G57C G71U A90U C114A U132C, -2.98.
Take U9C G69A G77A: the “polymerase ribozyme fitness (log ratio)” value is -2.73.
As for G69U G113U, the figure is -0.867; as for A2G C12U A29U G69C A75G C94A C123U, -4.95; as for C15U C79U, -1.97.
In the case of U9G A74U it was 0.26.
As for A2C C82A, the figure is -2.04; as for A16C C53U C86G, -2.99; as for A2C A121G, 0.405.
As for G52U C72U C80U C98U, the “polymerase ribozyme fitness (log ratio)” value was -3.28.
As for U14C C40A U87C, the “polymerase ribozyme fitness (log ratio)” value is -3.01.
Turning to C102U U109A, the “polymerase ribozyme fitness (log ratio)” value was -6.07.
For A2U A37U U54A G69U U78G A105G, the “polymerase ribozyme fitness (log ratio)” value was -3.36.
In the case of G61C U106C G135U it was -3.18; in that of U21G C22A A27U, -4.41; in that of G36U G61A U78A, -0.679.
In the case of C13G C94U it was -1.78.
G51A U96G: the “polymerase ribozyme fitness (log ratio)” value was -3.85.
In the case of C22U G120C U130G it was -4.69.
As for C56U A91U, the figure is -1.19.
As for A46U C70U C124U, the figure is -0.517; as for A24U U30C G58A G63C A95G G120C, -8.06.
Take A16U G48C U59C U126C: the “polymerase ribozyme fitness (log ratio)” value is -2.91.
As for A46C G63U U106A G117A, the figure is -3.84; as for C82A U112A C114G, -0.66; as for C11U G48U G113A, -2.84.
As for C72G C73U C86G, the figure is -5.02; as for A46G A95U A105U U109A, -6.27.
For the variant C56A C97A, the “polymerase ribozyme fitness (log ratio)” value was -3.81.
In the case of C13U C82G C99U it was -3.96; in that of A5G G63C, -0.273.
Regarding G51C G52C, the “polymerase ribozyme fitness (log ratio)” value was -2.79.
In the case of A2G C28U G93C C124G U133G it was -2.71; in that of U55C G61A, -0.329; in that of C13G G63U, -2.53.
In the case of C13G G63A it was -2.24; in that of C56A C123G, 1.24.
As for A46G G63C A84G C88U C124U, the “polymerase ribozyme fitness (log ratio)” value was -0.641.
In the case of G47U U87G U129A it was -4.44.
Consider C94U G113C, for which the “polymerase ribozyme fitness (log ratio)” value was -2.26.
As for U9G U14C G51A C56U C80A, the figure is -3.92.
In the case of C72G C85A it was -1.82.
In the case of C53A C56A G77C C89G it was -0.889; in that of C62U A95U, -2.57.
Regarding C62G C73U A83G, the “polymerase ribozyme fitness (log ratio)” value is -4.25.
